Abundance fitness data for 34 variants are collected here from the Human Domainome abundance scans (Beltran et al. 2025).

± gives the uncertainty stated by the source.

B1: Apoptosis-associated speck-like protein containing a CARD, residues 114 to 194; numbered along this chain, Q9ULZ3 (parent)
chain: FIDQHRAALIARVTNVEWLLDALYGKVLTDEQYQAVRAEPTNPSKMRKLFSFTPAWNWTCKDLLLQALRESQSYLVEDLER

This series covers variants of B1. Kind of series: abundance fitness (aPCA) (normalised: wild type 0, dead -1); higher = more abundant; growth selection in yeast, the domain comes from the species named. The settings on record: Homo sapiens.
Take FIDQHRAALIARVTNVEWLLDALYGKVLTDEQYQAVRAEPTNPSKMRKLFSFTPAWNWTCKDLLLIALRESQSYLVEDLER [Q66I]: the abundance fitness was -0.178 ± 0.16. In the case of FIDQHRAALIARVTNVEWLLDALYGKVLTDEQYQAVRAEPTNPSKMRKLFSFTPAWNWTCKDLLLQALRESQSYLHEDLER [V76H], the abundance fitness was -0.959 ± 0.35.

Turning to FIDQHRAALIARVTNVEWLLDALYGKVLTDEQYQAVRAEPTNPSKMRKLFSFTPAWNWTCKDLLLQALRESQSYLTEDLER [V76T], the abundance fitness is -0.558 ± 0.12. In the case of FIDQHRAALIARVTNVEWLLDALYGKVLTAEQYQAVRAEPTNPSKMRKLFSFTPAWNWTCKDLLLQALRESQSYLVEDLER [D30A], the abundance fitness was -0.165 ± 0.06. On to FIDQHRAALIARVTNVEWLLDALYGKVLTDEQYQAVRAEPTNPSKMEKLFSFTPAWNWTCKDLLLQALRESQSYLVEDLER [R47E], for which the abundance fitness amounted to 0.037 ± 0.081. The result for FIDCHRAALIARVTNVEWLLDALYGKVLTDEQYQAVRAEPTNPSKMRKLFSFTPAWNWTCKDLLLQALRESQSYLVEDLER [Q4C] reads -0.43 ± 0.14; that for FIDQHRAALIARVTNVEWLLDALYGKVLTDEQYQAVRAEPTNPSKMRKLFSFTPAWNWTCKDLYLQALRESQSYLVEDLER [L64Y], -0.75 ± 0.2; that for FIDQHRAALIARVTNVEWLYDALYGKVLTDEQYQAVRAEPTNPSKMRKLFSFTPAWNWTCKDLLLQALRESQSYLVEDLER [L20Y], -0.626 ± 0.39. The result for FIDQHRAALIARVTNVEWLLDALYGKVLTDEQYQAVRAEPTNPSKMRKLFSFTPTWNWTCKDLLLQALRESQSYLVEDLER [A55T] reads -0.061 ± 0.084.

Regarding FIDQHRAALIARVTNVEWLLDALYGKVLTDEQYQAVRAEPTNPSKMRKLFSFTPAWNWTCKDCLLQALRESQSYLVEDLER [L63C], the abundance fitness was -0.44 ± 0.11.

On to FIDQHRAALIARVTNVEWLLDALYGKVLTDEQYQAVRAEPTNPSLMRKLFSFTPAWNWTCKDLLLQALRESQSYLVEDLER [K45L], for which the abundance fitness is -0.918 ± 0.11.

Take FIDQHRAALIARVTNVEWLLDALYGKVLTDEQYQAVRAEPTNPSSMRKLFSFTPAWNWTCKDLLLQALRESQSYLVEDLER [K45S]: the abundance fitness was -0.273 ± 0.07. The result for FIDQHRAALIARVTNVEWLLDALYGKVLADEQYQAVRAEPTNPSKMRKLFSFTPAWNWTCKDLLLQALRESQSYLVEDLER [T29A] reads -0.585 ± 0.36; that for FIDQHRAALIARVTNVEWLLDALYGKVLTDEQYQAVRAEPTNPSKMRKLFSFTPAWNKTCKDLLLQALRESQSYLVEDLER [W58K], 0.19 ± 0.083. As to FIDQHRAALIARVTNVEWLLDALYGEVLTDEQYQAVRAEPTNPSKMRKLFSFTPAWNWTCKDLLLQALRESQSYLVEDLER [K26E], the abundance fitness is -0.323 ± 0.085. The result for FIDQHRAALIARVTNVEWLLDALYGAVLTDEQYQAVRAEPTNPSKMRKLFSFTPAWNWTCKDLLLQALRESQSYLVEDLER [K26A] reads -0.371 ± 0.078. As for FIDQHRAALIARVTNVEWLLDALYGKVLTDEQYQAVRAIPTNPSKMRKLFSFTPAWNWTCKDLLLQALRESQSYLVEDLER [E39I], the abundance fitness is -0.909 ± 0.25.

On to FIDQHRAALIARVTNVEWLLDALYGKVLTDEQYQAVRAPPTNPSKMRKLFSFTPAWNWTCKDLLLQALRESQSYLVEDLER [E39P], for which the abundance fitness was -0.914 ± 0.2. The result for FIDQHRAALIARVTNVEWLLDALYGKVLTDGQYQAVRAEPTNPSKMRKLFSFTPAWNWTCKDLLLQALRESQSYLVEDLER [E31G] reads -0.469 ± 0.048; that for FIDQHRAALIAFVTNVEWLLDALYGKVLTDEQYQAVRAEPTNPSKMRKLFSFTPAWNWTCKDLLLQALRESQSYLVEDLER [R12F], -0.655 ± 0.21; that for FIDQHRAALIANVTNVEWLLDALYGKVLTDEQYQAVRAEPTNPSKMRKLFSFTPAWNWTCKDLLLQALRESQSYLVEDLER [R12N], -0.14 ± 0.16. Consider FIDQHRAALIARVTNVEWLLDALYGKVLTDEQYQAVRAEPTNPSKMRKLFSFTPAWNWTCKDLLLQALRVSQSYLVEDLER [E70V], for which the abundance fitness is -0.211 ± 0.059.

As to FIDQHRAALIARVTNVEWLLDALYGKVLTDEQYQAVRMEPTNPSKMRKLFSFTPAWNWTCKDLLLQALRESQSYLVEDLER [A38M], the abundance fitness was -0.11 ± 0.071.

As to FIDQHRAALIARVTNVEWLLDALYGKVLTDEQYQAVRAEPTNPSKMRKLFSFTPAWNWTCKDLLLQALREFQSYLVEDLER [S71F], the abundance fitness was -0.8 ± 0.14. As for FIDQHRAALIARVTNVEWLLDALYGKVLTDEQYQAVRAEPTNPSKMRKLFSFTLAWNWTCKDLLLQALRESQSYLVEDLER [P54L], the abundance fitness was -0.328 ± 0.047. As for FIDQHRAALIARVTNVEWLLDALYGKVLTDEQYQAVRAEPTNPSKMRKLFSFTFAWNWTCKDLLLQALRESQSYLVEDLER [P54F], the abundance fitness turned out to be 0.057 ± 0.14. The result for FIDQHRAALIARVTNVEWLLDALYGKVLTDEQYQAVRAEPTNPSKMRELFSFTPAWNWTCKDLLLQALRESQSYLVEDLER [K48E] reads -0.963 ± 0.21; that for FIDQHRAALIARVTNVEWLLDALYGKVLTDEQYQAVRAEPTNPSKMRCLFSFTPAWNWTCKDLLLQALRESQSYLVEDLER [K48C], -0.667 ± 0.14; that for FIDQHRFALIARVTNVEWLLDALYGKVLTDEQYQAVRAEPTNPSKMRKLFSFTPAWNWTCKDLLLQALRESQSYLVEDLER [A7F], -0.652 ± 0.16. The result for FIDQHRAALIARVTNVEWLLDALYGKVLTDEQYQAVRAEPTNPSKMRKLFSFTPAWNWTCKDLLLQALRESSSYLVEDLER [Q72S] reads -0.216 ± 0.059.

As for FIDQHRAALIARVTNVEWLLDALYGKVLTDEQYQAVRAEPTNFSKMRKLFSFTPAWNWTCKDLLLQALRESQSYLVEDLER [P43F], the abundance fitness is -0.395 ± 0.15. Regarding FIDQHRAALIARVTNVEWLLDALYGKVLTDEQYQAVRAEPTNQSKMRKLFSFTPAWNWTCKDLLLQALRESQSYLVEDLER [P43Q], the abundance fitness was found to be 0.065 ± 0.097.

In the case of FIDQHRAALIARVTNVEWLLDALYGKVLTDEQYQAVRAEPTNPSKMRKLFSFTPAWNWTCKDLLLQRLRESQSYLVEDLER [A67R], the abundance fitness was -0.622 ± 0.084.

With FIDQHRAALIARVTNSEWLLDALYGKVLTDEQYQAVRAEPTNPSKMRKLFSFTPAWNWTCKDLLLQALRESQSYLVEDLER [V16S], the abundance fitness is -0.846 ± 0.1.
